Consider 91 sequences from the supplement of paper PMC9112550, “Optimization of the antimicrobial peptide Bac7 by deep mutational scanning” (BMC Biology, 2022).
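Further: peptides expressed intracellularly from a pBAD plasmid library in pooled LB shake-flask culture, induced with 0.3% L-arabinose, DNA abundance read by NGS, three biological replicates, DESeq2 with apeglm shrinkage.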

For the data set, the system named is Escherichia coli TOP10. Kind of data set: shrunken log2 fold change of peptide-encoding DNA abundance (4.5 h post-induction vs induction); higher = less antimicrobial activity (less host growth inhibition). Particulars: time post-induction: 4.5 h; library: site-saturation at positions 5, 18, 19, 20.
On to RRIRMRPPRLPRPRPRPGQDPRP, for which the “shrunken log2 fold change” value was determined as 0.781.

On to RRIRTRPPRLPRPRPRPCMPPRP, for which the “shrunken log2 fold change” value is -0.143.

With RRIRMRPPRLPRPRPRPTFCPRP, the “shrunken log2 fold change” value was 0.282.

Take RRIRVRPPRLPRPRPRPCHPPRP: the “shrunken log2 fold change” value is -0.0124.

Consider RRIRPRPPRLPRPRPRPDFPPRP, for which the “shrunken log2 fold change” value is -0.0174.

Regarding RRIRRRPPRLPRPRPRPFEVPRP, the “shrunken log2 fold change” value worked out at 0.0871.

For RRIRQRPPRLPRPRPRPCKLPRP, the “shrunken log2 fold change” value is -0.167.

On to RRIRMRPPRLPRPRPRPVRFPRP, for which the “shrunken log2 fold change” value was 0.725.

For the sequence RRIRRRPPRLPRPRPRPYCRPRP, the “shrunken log2 fold change” value is -0.503.

As to RRIRKRPPRLPRPRPRPPYTPRP, the “shrunken log2 fold change” value was 0.0509.

For RRIRTRPPRLPRPRPRPLPGPRP, the “shrunken log2 fold change” value came out at 0.164.

Consider RRIRHRPPRLPRPRPRPAIIPRP, for which the “shrunken log2 fold change” value is -0.113.

Take RRIRVRPPRLPRPRPRPFQTPRP: the “shrunken log2 fold change” value is -0.214.

Take RRIRERPPRLPRPRPRPALHPRP: the “shrunken log2 fold change” value stood at 0.247.

RRIRARPPRLPRPRPRPKQLPRP: the “shrunken log2 fold change” value was 0.155.

In the case of RRIRSRPPRLPRPRPRPILNPRP, the “shrunken log2 fold change” value was -0.183.

As for RRIRERPPRLPRPRPRPNYHPRP, the “shrunken log2 fold change” value is -0.626.

RRIRSRPPRLPRPRPRPSMWPRP: the “shrunken log2 fold change” value is 0.149.

Turning to RRIRERPPRLPRPRPRPKLYPRP, the “shrunken log2 fold change” value was -0.432.

On to RRIRGRPPRLPRPRPRPDKNPRP, for which the “shrunken log2 fold change” value was determined as 0.32.

In the case of RRIRTRPPRLPRPRPRPLAWPRP, the “shrunken log2 fold change” value came to 0.195.

RRIRQRPPRLPRPRPRPDWHPRP: the “shrunken log2 fold change” value was -0.038.

With RRIRPRPPRLPRPRPRPGNNPRP, the “shrunken log2 fold change” value was -0.103.

Consider RRIRCRPPRLPRPRPRPNYPPRP, for which the “shrunken log2 fold change” value was -0.427.

RRIRARPPRLPRPRPRPETQPRP: the “shrunken log2 fold change” value turned out to be 1.57.

On to RRIRVRPPRLPRPRPRPKAQPRP, for which the “shrunken log2 fold change” value turned out to be 0.107.

For RRIRHRPPRLPRPRPRPDTGPRP, the “shrunken log2 fold change” value was -0.014.

Regarding RRIRERPPRLPRPRPRPYDDPRP, the “shrunken log2 fold change” value is -0.341.

Take RRIRCRPPRLPRPRPRPKQPPRP: the “shrunken log2 fold change” value was 0.595.

In the case of RRIRPRPPRLPRPRPRPVWGPRP, the “shrunken log2 fold change” value is 0.0591.

As for RRIRMRPPRLPRPRPRPTWGPRP, the “shrunken log2 fold change” value amounted to 0.564.

On to RRIRSRPPRLPRPRPRPACEPRP, for which the “shrunken log2 fold change” value turned out to be 0.233.

Take RRIRNRPPRLPRPRPRPAPHPRP: the “shrunken log2 fold change” value came to 0.227.

With RRIRYRPPRLPRPRPRPWSKPRP, the “shrunken log2 fold change” value is -0.0945.

As to RRIRFRPPRLPRPRPRPQMWPRP, the “shrunken log2 fold change” value was -0.0128.

On to RRIRERPPRLPRPRPRPHLWPRP, for which the “shrunken log2 fold change” value was 2.71.

Take RRIRERPPRLPRPRPRPPFWPRP: the “shrunken log2 fold change” value was -0.0269.

With RRIRIRPPRLPRPRPRPRQRPRP, the “shrunken log2 fold change” value was determined as 0.211.

Turning to RRIRERPPRLPRPRPRPMCGPRP, the “shrunken log2 fold change” value was -0.0439.

In the case of RRIRRRPPRLPRPRPRPVDKPRP, the “shrunken log2 fold change” value turned out to be 0.0213.

With RRIRRRPPRLPRPRPRPADWPRP, the “shrunken log2 fold change” value was found to be 0.652.

In the case of RRIRYRPPRLPRPRPRPTVDPRP, the “shrunken log2 fold change” value is 0.0546.

Consider RRIRERPPRLPRPRPRPNKIPRP, for which the “shrunken log2 fold change” value was -0.642.

On to RRIRLRPPRLPRPRPRPGHCPRP, for which the “shrunken log2 fold change” value worked out at 0.0372.

As for RRIRTRPPRLPRPRPRPWYGPRP, the “shrunken log2 fold change” value is -0.379.

As to RRIRIRPPRLPRPRPRPIASPRP, the “shrunken log2 fold change” value is -0.567.

With RRIRNRPPRLPRPRPRPKREPRP, the “shrunken log2 fold change” value is 0.0191.

RRIRTRPPRLPRPRPRPQFRPRP: the “shrunken log2 fold change” value is -0.132.

On to RRIRRRPPRLPRPRPRPAWHPRP, for which the “shrunken log2 fold change” value is 0.527.

As for RRIRLRPPRLPRPRPRPGSNPRP, the “shrunken log2 fold change” value is -0.57.

For RRIRSRPPRLPRPRPRPNHHPRP, the “shrunken log2 fold change” value is -0.566.

In the case of RRIRQRPPRLPRPRPRPHQDPRP, the “shrunken log2 fold change” value was -0.327.

As for RRIRHRPPRLPRPRPRPRLVPRP, the “shrunken log2 fold change” value was -0.113.

Regarding RRIRMRPPRLPRPRPRPQNMPRP, the “shrunken log2 fold change” value is -0.631.

On to RRIRARPPRLPRPRPRPMGKPRP, for which the “shrunken log2 fold change” value came out at 0.472.

Consider RRIRLRPPRLPRPRPRPGWNPRP, for which the “shrunken log2 fold change” value stood at 0.000784.

With RRIRDRPPRLPRPRPRPGNKPRP, the “shrunken log2 fold change” value was -0.0705.

For the sequence RRIRMRPPRLPRPRPRPQDHPRP, the “shrunken log2 fold change” value is -0.0101.

As to RRIRGRPPRLPRPRPRPVVKPRP, the “shrunken log2 fold change” value amounted to 0.246.

Turning to RRIRLRPPRLPRPRPRPPNFPRP, the “shrunken log2 fold change” value came out at 0.0275.

In the case of RRIRDRPPRLPRPRPRPIEIPRP, the “shrunken log2 fold change” value was -0.298.

On to RRIRSRPPRLPRPRPRPIQEPRP, for which the “shrunken log2 fold change” value is 0.000527.

On to RRIRGRPPRLPRPRPRPRPAPRP, for which the “shrunken log2 fold change” value came to 1.07.

For RRIRDRPPRLPRPRPRPHHFPRP, the “shrunken log2 fold change” value was -0.49.

Turning to RRIRCRPPRLPRPRPRPDVNPRP, the “shrunken log2 fold change” value is -0.281.

Take RRIRHRPPRLPRPRPRPSLLPRP: the “shrunken log2 fold change” value is -0.287.

With RRIRARPPRLPRPRPRPRHGPRP, the “shrunken log2 fold change” value came out at 0.343.

Turning to RRIRCRPPRLPRPRPRPIVRPRP, the “shrunken log2 fold change” value is -0.793.

Turning to RRIRGRPPRLPRPRPRPMRIPRP, the “shrunken log2 fold change” value came out at 2.34.

On to RRIRLRPPRLPRPRPRPAVFPRP, for which the “shrunken log2 fold change” value was determined as 0.142.

Take RRIRRRPPRLPRPRPRPGNIPRP: the “shrunken log2 fold change” value is -0.0618.

For RRIRKRPPRLPRPRPRPERWPRP, the “shrunken log2 fold change” value is 1.15.

Consider RRIRCRPPRLPRPRPRPHRRPRP, for which the “shrunken log2 fold change” value was -0.167.

For RRIRCRPPRLPRPRPRPLVQPRP, the “shrunken log2 fold change” value stood at 0.245.

Consider RRIRERPPRLPRPRPRPLKNPRP, for which the “shrunken log2 fold change” value is -0.477.

Turning to RRIRYRPPRLPRPRPRPQLAPRP, the “shrunken log2 fold change” value was -0.228.

For the sequence RRIRERPPRLPRPRPRPRQHPRP, the “shrunken log2 fold change” value was -0.0319.

Regarding RRIRARPPRLPRPRPRPKPNPRP, the “shrunken log2 fold change” value was determined as 0.736.

Consider RRIRCRPPRLPRPRPRPTNQPRP, for which the “shrunken log2 fold change” value was -0.427.

With RRIRPRPPRLPRPRPRPRCMPRP, the “shrunken log2 fold change” value amounted to 0.0856.

Turning to RRIRGRPPRLPRPRPRPASRPRP, the “shrunken log2 fold change” value stood at 0.705.

As to RRIRPRPPRLPRPRPRPRNFPRP, the “shrunken log2 fold change” value amounted to 0.192.

Take RRIRCRPPRLPRPRPRPCADPRP: the “shrunken log2 fold change” value was -0.0836.

For RRIRNRPPRLPRPRPRPSDIPRP, the “shrunken log2 fold change” value was determined as 0.0588.

Turning to RRIRSRPPRLPRPRPRPSAQPRP, the “shrunken log2 fold change” value was 0.198.

Turning to RRIRARPPRLPRPRPRPASGPRP, the “shrunken log2 fold change” value was found to be 1.35.

Consider RRIRCRPPRLPRPRPRPAYEPRP, for which the “shrunken log2 fold change” value was -0.28.

Take RRIRWRPPRLPRPRPRPSVCPRP: the “shrunken log2 fold change” value was found to be 0.104.

Take RRIRIRPPRLPRPRPRPPTEPRP: the “shrunken log2 fold change” value is -0.323.

For RRIRHRPPRLPRPRPRPNGKPRP, the “shrunken log2 fold change” value was -0.335.

Turning to RRIRQRPPRLPRPRPRPDCEPRP, the “shrunken log2 fold change” value is -0.00144.
